Experimental data from paper PMC6442593.
“And” between values parts separate entries of the source, which are not always exact repeats. Equal entries are not always repeated.

Molecular target: uPAR-tagged soluble human GPIHBP1-S107C (human) (UniProt Q8IV16)
Experiment: density gradient ultracentrifugation

stoichiometry N: 2 and 3
Substance: uPAR-tagged soluble human GPIHBP1-S107C (from UniProt Q8IV16 21-151) (domain or fragment)
